The record followed here is the RNAGym collection of RNA variant scans (doi:10.7554/elife.80360).

B1: Twister Ribozyme (parent)
chain: AACACUGCCAAUGCCGGUCCCAAGCCCGGAUAAAAGUGGAGGGGGCGG

Variants of B1 are the subject of this series. Nature of the series: self-cleavage, relative activity (ratio to wild type); higher = more cleavage; co-transcriptional.
As to AACACUGCCAAUGCCGGUCCCAAGCCCGGAUAAAAGUGGAGGGAGGGG [G44A C46G], the self-cleavage worked out at 0.895. As for AACUCUGCCAAUGUCGGUCCCAAGCCCGGAUAAAAGUGGAGGGGGCGG [A4U C14U], the self-cleavage was determined as 0.13.

Consider AACACUGCCAAUGCCGGUGCCAAGCCCGGAUAAAAGUGGAAGGGGCGG [C19G G41A], for which the self-cleavage is 0.113. In the case of AACACUGCCAAUGCCGGUCCCAAGCCCGGAUAAAAGUGGGGGGGGCGC [A40G G48C], the self-cleavage was found to be 0.14.

For AACACUGCCAAUGCUGGUCCCAAGCCCGGAUUAAAGUGGAGGGGGCGG [C15U A32U], the self-cleavage is 0.958. Regarding AACACUGCCAAUGCCGGUCCCAAGCCCGGAUAAGAGUGGCGGGGGCGG [A34G A40C], the self-cleavage stood at 0.198. For the variant AACACUGCCGAUGCCGGUGCCAAGCCCGGAUAAAAGUGGAGGGGGCGG [A10G C19G], the self-cleavage worked out at 0.677. AACACUGACAAUGCCGGUCCCAAGCCCGGAUAAAAGUGGAGGGGCCGG [C8A G45C]: the self-cleavage is 0.141.

With AUAACUGCCAAUGCCGGUCCCAAGCCCGGAUAAAAGUGGAGGGGGCGG [A2U C3A], the self-cleavage was found to be 0.077.

Take AAAACUGCCAAUGCCGGUCCCAAGCCUGGAUAAAAGUGGAGGGGGCGG [C3A C27U]: the self-cleavage was found to be 0.183. On to AACACUGCCAAUGCCGGUCCCAAGCUCGGAUGAAAGUGGAGGGGGCGG [C26U A32G], for which the self-cleavage was 0.411.

With AACACUGCCAUUGCCGGUCCCAAGCCCGGAUAAUAGUGGAGGGGGCGG [A11U A34U], the self-cleavage was found to be 0.974.

In the case of AACACUGCCAAUGCCGGUCCCAAGCCCGGACAAAAGUGGAGUGGGCGG [U31C G42U], the self-cleavage came to 0.407. The figure for UACACUGCCAAUGCCGGUCCCAAGCCCGAAUAAAAGUGGAGGGGGCGG [A1U G29A] is 0.0545.

As for AACACUGCCUUUGCCGGUCCCAAGCCCGGAUAAAAGUGGAGGGGGCGG [A10U A11U], the self-cleavage is 1.14. With AACACUUCCAAUGCCGGUCCCAAGCCCGGACAAAAGUGGAGGGGGCGG [G7U U31C], the self-cleavage was found to be 0.111. The same measure for AACACUGCCAAUGCCACUCCCAAGCCCGGAUAAAAGUGGAGGGGGCGG [G16A G17C]: 0.139; for CUCACUGCCAAUGCCGGUCCCAAGCCCGGAUAAAAGUGGAGGGGGCGG [A1C A2U]: 0.346; for CGCACUGCCAAUGCCGGUCCCAAGCCCGGAUAAAAGUGGAGGGGGCGG [A1C A2G]: 1.25. In the case of AACACUGCCAAUGCCGGUCCCAAGCCCGGAUAAAAGUGGAUGCGGCGG [G41U G43C], the self-cleavage worked out at 0.135. The same measure for AACACUGACAAUGCCGGUCCCAAGCCCGAAUAAAAGUGGAGGGGGCGG [C8A G29A]: 0.327; for AGCACUGCCAAUGACGGUCCCAAGCCCGGAUAAAAGUGGAGGGGGCGG [A2G C14A]: 0.291. AACAGUGCCAAUGCCGGUCCCAAGCCCGGAUAAAAGUGGAGUGGGCGG [C5G G42U]: the self-cleavage was found to be 0.0923.

On to AACACUGCCAAUGCCGGUCCCAAGCCCGGAUAAAAGAUGAGGGGGCGG [U37A G38U], for which the self-cleavage was found to be 0.38. As to AACACUGCCAAUGCCGGUCCCAUGCCCGGAUAAAAGUGGAGGGGGCGG [A23U], the self-cleavage was determined as 0.697. For the variant AACACUGCCAAUGCCGGUCCCAAGCCCGAAUAAAAGUGGAGGGGGUGG [G29A C46U], the self-cleavage was 0.948. AACACUGCUAAUGCCGGUCCCAAGCCCGGAUUAAAGUGGAGGGGGCGG [C9U A32U]: the self-cleavage is 0.585. As for AACACUGCCAAUGCAGGUCCCAAGCCCGGAUAAAAGUGGAGGGGGCGG [C15A], the self-cleavage was 0.801. As to AACACUGCUAAUGCCGGUCCCAAGCCCGAAUAAAAGUGGAGGGGGCGG [C9U G29A], the self-cleavage was 0.635. As to AACACUGCCAAUGCCGGGCCCAAGCCCGCAUAAAAGUGGAGGGGGCGG [U18G G29C], the self-cleavage stood at 0.0613.

Turning to AACACUGCCAAUGCCGGUCCCAAGCCCGGCUAAAAGUGGACGGGGCGG [A30C G41C], the self-cleavage stood at 0.124. For AACACUGCCAAUGCCGGACCCAAGCCCGGAUAAAAGUGGAGGGGGCGC [U18A G48C], the self-cleavage is 0.395.

As for AACACUGCCAAUGCCGGUCCCAUGCCCGGAUAAAGGUGGAGGGGGCGG [A23U A35G], the self-cleavage came out at 0.17. For AACACUGCCAAUGCCGGUCCCAAGCCCGGAUGACAGUGGAGGGGGCGG [A32G A34C], the self-cleavage amounted to 0.137. For AACACUGCCAAUGCCGGUCCCAAGCACGGAUAAAAGUGGAGGGCGCGG [C26A G44C], the self-cleavage stood at 0.212. As to AACACUGCCAAUCCCGGUCCCAAGGCCGGAUAAAAGUGGAGGGGGCGG [G13C C25G], the self-cleavage is 0.101. On to AACACUGCCAAUGCCGGUCCCUAGCCCGGAUAAAACUGGAGGGGGCGG [A22U G36C], for which the self-cleavage was determined as 0.19.

Turning to AACACUGCCACUGCCGUUCCCAAGCCCGGAUAAAAGUGGAGGGGGCGG [A11C G17U], the self-cleavage turned out to be 0.14. In the case of AACACUCCCAAUGCCGGUUCCAAGCCCGGAUAAAAGUGGAGGGGGCGG [G7C C19U], the self-cleavage is 0.0513. With AACACUGCCAAUGCCGGUCCCAAGCCCGAAUAAAAGUGGAGUGGGCGG [G29A G42U], the self-cleavage is 0.323. Turning to AACACUGCCAAUGCCGGUCACAAGCCCAGAUAAAAGUGGAGGGGGCGG [C20A G28A], the self-cleavage is 0.0974.

In the case of AACACUGCCAAUGCCGGUCGCAAGCCCGGAUAAAAGUGGAAGGGGCGG [C20G G41A], the self-cleavage is 0.0636.

In the case of AACACUGCCAAUGCCGGUUCCAAGCCCGGAUAAAAGUGGAGGUGGCGG [C19U G43U], the self-cleavage stood at 1.02. The figure for AACACUGCCAAUGUCGGUCCCAAGACCGGAUAAAAGUGGAGGGGGCGG [C14U C25A] is 0.27; for AACACUGCCAAUGCCGGUCCCAAGCCCGGAUAAAAGUGGACGCGGCGG [G41C G43C] it is 0.148; for AACACUGCCAAUGCCGGUCCCAAGCCCGGAUAAAAAUGGAGGGCGCGG [G36A G44C] it is 0.762. The same measure for AACACCGCCAAUGACGGUCCCAAGCCCGGAUAAAAGUGGAGGGGGCGG [U6C C14A]: 0.504. In the case of AAAACUGCCAAUGCCGGUCCCCAGCCCGGAUAAAAGUGGAGGGGGCGG [C3A A22C], the self-cleavage was determined as 0.115. AACACUGCCAAUGCCGGUCCCAAGCCCGGGUAAAAGUGGAGGUGGCGG [A30G G43U]: the self-cleavage was 0.498. For the variant AACACUCCCAAUGCCAGUCCCAAGCCCGGAUAAAAGUGGAGGGGGCGG [G7C G16A], the self-cleavage stood at 0.0653. As to AACACUGCCAAUGCCGGUCCCAAGGCCGGAUAAAAGUGGAGGGAGCGG [C25G G44A], the self-cleavage amounted to 0.514. For the variant AACACUGCAAAUGCCGGUCCCAAGCCCGAAUAAAAGUGGAGGGGGCGG [C9A G29A], the self-cleavage is 0.627. In the case of AACACCGCAAAUGCCGGUCCCAAGCCCGGAUAAAAGUGGAGGGGGCGG [U6C C9A], the self-cleavage worked out at 0.0857. Regarding GACACUGCCAAUGCAGGUCCCAAGCCCGGAUAAAAGUGGAGGGGGCGG [A1G C15A], the self-cleavage turned out to be 0.265.
